Square brackets hold non-standard residues; d marks the D form.
T1: human TREK-1 potassium channel expressed in the h-TREK-1/HEK cell line (human, UniProt O95069 1-426)
T1 sequence (looked up): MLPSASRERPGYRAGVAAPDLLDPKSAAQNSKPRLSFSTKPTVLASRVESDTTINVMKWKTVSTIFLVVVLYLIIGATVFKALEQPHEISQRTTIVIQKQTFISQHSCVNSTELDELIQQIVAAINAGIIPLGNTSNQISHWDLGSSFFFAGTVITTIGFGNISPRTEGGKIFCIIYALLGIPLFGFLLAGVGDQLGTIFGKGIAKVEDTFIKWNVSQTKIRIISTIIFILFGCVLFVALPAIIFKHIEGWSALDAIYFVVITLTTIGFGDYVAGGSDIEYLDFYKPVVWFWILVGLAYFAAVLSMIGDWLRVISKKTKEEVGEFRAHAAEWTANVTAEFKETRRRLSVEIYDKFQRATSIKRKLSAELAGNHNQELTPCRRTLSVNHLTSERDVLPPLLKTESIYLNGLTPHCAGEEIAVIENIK

B1: Analog 8 (SEQ ID NO:9), Ac-rlGwsvGipGswrplpaappppadlrdq-NH2 (peptide)
peptide: Ac-[dR][dL]G[dW][dS][dV]G[dI][dP]G[dS][dW][dR][dP][dL][dP][dA][dA][dP][dP][dP][dP][dA][dD][dL][dR][dD][dQ]-NH2
SMILES: CC[C@@H](C)[C@@H](NC(=O)CNC(=O)[C@H](NC(=O)[C@@H](CO)NC(=O)[C@@H](Cc1c[nH]c2ccccc12)NC(=O)CNC(=O)[C@@H](CC(C)C)NC(=O)[C@@H](CCCNC(=N)N)NC(C)=O)C(C)C)C(=O)N1CCC[C@@H]1C(=O)NCC(=O)N[C@H](CO)C(=O)N[C@H](Cc1c[nH]c2ccccc12)C(=O)N[C@H](CCCNC(=N)N)C(=O)N1CCC[C@@H]1C(=O)N[C@H](CC(C)C)C(=O)N1CCC[C@@H]1C(=O)N[C@H](C)C(=O)N[C@H](C)C(=O)N1CCC[C@@H]1C(=O)N1CCC[C@@H]1C(=O)N1CCC[C@@H]1C(=O)N1CCC[C@@H]1C(=O)N[C@H](C)C(=O)N[C@H](CC(=O)O)C(=O)N[C@H](CC(C)C)C(=O)N[C@H](CCCNC(=N)N)C(=O)N[C@H](CC(=O)O)C(=O)N[C@H](CCC(N)=O)C(N)=O
B2: Analog 16 (SEQ ID NO:21), c(rlGwsvGipGswrplparlGwsvGipGswrplpa) (peptide)
peptide: cyclo([dR][dL]G[dW][dS][dV]G[dI][dP]G[dS][dW][dR][dP][dL][dP][dA][dR][dL]G[dW][dS][dV]G[dI][dP]G[dS][dW][dR][dP][dL][dP][dA])
SMILES: CC[C@@H](C)[C@H]1NC(=O)CNC(=O)[C@@H](C(C)C)NC(=O)[C@@H](CO)NC(=O)[C@@H](Cc2c[nH]c3ccccc23)NC(=O)CNC(=O)[C@@H](CC(C)C)NC(=O)[C@@H](CCCNC(=N)N)NC(=O)[C@@H](C)NC(=O)[C@H]2CCCN2C(=O)[C@@H](CC(C)C)NC(=O)[C@H]2CCCN2C(=O)[C@@H](CCCNC(=N)N)NC(=O)[C@@H](Cc2c[nH]c3ccccc23)NC(=O)[C@@H](CO)NC(=O)CNC(=O)[C@H]2CCCN2C(=O)[C@@H]([C@H](C)CC)NC(=O)CNC(=O)[C@@H](C(C)C)NC(=O)[C@@H](CO)NC(=O)[C@@H](Cc2c[nH]c3ccccc23)NC(=O)CNC(=O)[C@@H](CC(C)C)NC(=O)[C@@H](CCCNC(=N)N)NC(=O)[C@@H](C)NC(=O)[C@H]2CCCN2C(=O)[C@@H](CC(C)C)NC(=O)[C@H]2CCCN2C(=O)[C@@H](CCCNC(=N)N)NC(=O)[C@@H](Cc2c[nH]c3ccccc23)NC(=O)[C@@H](CO)NC(=O)CNC(=O)[C@H]2CCCN2C1=O
B3: Analog 15 (SEQ ID NO:20), c(rlGwsvGipGswrplpa) (peptide)
peptide: cyclo([dR][dL]G[dW][dS][dV]G[dI][dP]G[dS][dW][dR][dP][dL][dP][dA])
SMILES: CC[C@@H](C)[C@H]1NC(=O)CNC(=O)[C@@H](C(C)C)NC(=O)[C@@H](CO)NC(=O)[C@@H](Cc2c[nH]c3ccccc23)NC(=O)CNC(=O)[C@@H](CC(C)C)NC(=O)[C@@H](CCCNC(=N)N)NC(=O)[C@@H](C)NC(=O)[C@H]2CCCN2C(=O)[C@@H](CC(C)C)NC(=O)[C@H]2CCCN2C(=O)[C@@H](CCCNC(=N)N)NC(=O)[C@@H](Cc2c[nH]c3ccccc23)NC(=O)[C@@H](CO)NC(=O)CNC(=O)[C@H]2CCCN2C1=O
B4: Analog 3 (SEQ ID NO:4), Ac-rlGwsvGipGswrplpa-NH2 (peptide)
peptide: Ac-[dR][dL]G[dW][dS][dV]G[dI][dP]G[dS][dW][dR][dP][dL][dP][dA]-NH2
SMILES: CC[C@@H](C)[C@@H](NC(=O)CNC(=O)[C@H](NC(=O)[C@@H](CO)NC(=O)[C@@H](Cc1c[nH]c2ccccc12)NC(=O)CNC(=O)[C@@H](CC(C)C)NC(=O)[C@@H](CCCNC(=N)N)NC(C)=O)C(C)C)C(=O)N1CCC[C@@H]1C(=O)NCC(=O)N[C@H](CO)C(=O)N[C@H](Cc1c[nH]c2ccccc12)C(=O)N[C@H](CCCNC(=N)N)C(=O)N1CCC[C@@H]1C(=O)N[C@H](CC(C)C)C(=O)N1CCC[C@@H]1C(=O)N[C@H](C)C(N)=O
B5: Analog 14 (SEQ ID NO:15), Ac-rlawsvaipaswrplpa-NH2 (peptide)
peptide: Ac-[dR][dL][dA][dW][dS][dV][dA][dI][dP][dA][dS][dW][dR][dP][dL][dP][dA]-NH2
SMILES: CC[C@@H](C)[C@@H](NC(=O)[C@@H](C)NC(=O)[C@H](NC(=O)[C@@H](CO)NC(=O)[C@@H](Cc1c[nH]c2ccccc12)NC(=O)[C@@H](C)NC(=O)[C@@H](CC(C)C)NC(=O)[C@@H](CCCNC(=N)N)NC(C)=O)C(C)C)C(=O)N1CCC[C@@H]1C(=O)N[C@H](C)C(=O)N[C@H](CO)C(=O)N[C@H](Cc1c[nH]c2ccccc12)C(=O)N[C@H](CCCNC(=N)N)C(=O)N1CCC[C@@H]1C(=O)N[C@H](CC(C)C)C(=O)N1CCC[C@@H]1C(=O)N[C@H](C)C(N)=O

Target: T1, human TREK-1 potassium channel …
Assay: cell-based or functional assay

Row | Binder | IC50 of TREK-1 current inhibition (dose-response, whole cell patch clamp, 0 mV) [nM] | fold higher affinity for TREK-1 channels than spadin, inferred from the IC50 of current inhibition [fold]
1 | B1 | 9.95 | 6
2 | B2 | 0.001 | 
3 | Ac-APLPRWSAPIAVSWALR-NH2 [Analog 13 (SEQ ID NO:14), Ac-APLPRWSAPIAVSWALR-NH2] | 0.04 | 
4 | B3 | 0.04 | 
5 | B4 | 11.5 | 6
6 | B5 | 0.004 | 
7 | Ac-APLPRWSGPIGVSWGLR-NH2 [Analog 2 (SEQ ID NO:3), Ac-APLPRWSGPIGVSWGLR-NH2] | 60 | 

Reference: patent publication US20170072013A1 (MEDINCELL, published 2017)
